Data published in patent publication US20060233708A1.
Several values for one entry are separate records, joined by “and”; a condition that tells them apart may be missing. Identical values can stand only once. One block for each molecule: values may come before it. Ends that are not written are not given here.

What was measured:
[1] = target: TGF-β receptors in mink lung epithelial cells; experiment: specific binding of 125I-TGF-β1 to mink lung epithelial cells without peptide
[2] = target: TGF-β receptors in mink lung epithelial cells; experiment: specific binding of 0.1 nM 125I-TGF-β1 to mink lung epithelial cells
[3] = target: TGF-β receptors in mink lung epithelial cells; experiment: competition with 125I-TGF-β1 for binding to mink lung epithelial cells
[4] = target: TGF-β receptors in mink lung epithelial cells
[5] = target: TGF-β receptors in mink lung epithelial cells; experiment: specific binding of 125I-TGF-β3 to mink lung epithelial cells without peptide
[6] = target: TGF-β receptors in mink lung epithelial cells; experiment: competition with 125I-TGF-β1 for binding to mink lung epithelial cells; remark: listed apart in the source
[7] = target: TGF-β receptors in mink lung epithelial cells; experiment: competition with 125I-TGF-β2 for binding to mink lung epithelial cells
[8] = target: type V TGF-β receptor (mink); experiment: inhibition of 125I-TGF-β1 affinity labeling of receptors on mink lung epithelial cells
[9] = target: type III TGF-β receptor (mink); experiment: as above
[10] = target: type II TGF-β receptor (mink); experiment: as above
[11] = target: type I TGF-β receptor (mink); experiment: as above
[12] = target: TGF-β receptors in mink lung epithelial cells; experiment: competition with 125I-TGF-β3 for binding to mink lung epithelial cells
[13] = target: TGF-β receptors in mink lung epithelial cells; experiment: specific binding of 125I-TGF-β2 to mink lung epithelial cells without peptide

- IC50 [6]: 40000 to 70000 nM
B3: peptide β2^10 (49-58) (peptide)
peptide: PYLWSSDTQH

- IC50 [6]: 20000 nM
- IC50 [7]: 20000 nM
- IC50 [12]: 60 to 80 nM
B5: peptide β3^25 (41-65) (peptide)
peptide: ANFCSGPCPYLRSADTTHSTVLGLY
modifications: not fully specified; cysteine pairing not given here

- IC50 [6]: 1000 nM and 2000 nM
- IC50 [7]: 1000 nM and 2000 nM
- IC50 [12]: 80 nM
B6: peptide β2^25 (41-65) (peptide)
peptide: ANFCAGACPYLWSSDTQHSRVLSLY
modifications: not fully specified; cysteine pairing not given here

- IC50 [6]: 40000 nM
B8: peptide β2^10 (49-58) S53A (peptide)
peptide: PYLWASDTQH

The next lines start with the molecule.

Molecule: TGF-β1 (ligand)
- specific binding (0% inhibition) [1]: 3930 cpm/well
- specific binding without peptides [2]: 3670 cpm/well

Molecule: peptide β1^25 (41-65)-bovine serum albumin (BSA) conjugate (from UniProt P02769)
- IC50 [3]: 60 nM
- fold lower IC50 than peptide β1^25 (41-65) prior to conjugation [3]: 20 fold
- ED50 of growth inhibition as measured by DNA synthesis in mink lung epithelial cells [4]: 100 nM

Molecule: peptide β1^25 (41-65)-carbonic anhydrase (CA) conjugate (from UniProt P00915)
- IC50 [3]: 50 nM
- fold lower IC50 than peptide β1^25 (41-65) prior to conjugation [3]: 20 fold
- ED50 of growth inhibition as measured by DNA synthesis in mink lung epithelial cells [4]: 100 nM

B1: TGF-β3 (ligand)
chain: ALDTNYCFRNLEENCCVRPLYIDFRQDLGWKWVHEPKGYYANFCSGPCPYLRSADTTHSTVLGLYNTLNPEASASPCCVPQDLEPLTILYYVGRTPKVEQLSNMVVKSCKCS
modifications: ^125I-labelled (iodination with Na^125I)
- specific binding (0% inhibition) [5]: 4220 cpm/well

B2: peptide β1^25 (41-65) (peptide)
peptide: ANFCLGPCPYIWSLDTQYSKVLALY
modifications: not fully specified; cysteine pairing not given here
- IC50 [6]: 1000 nM and 2000 nM
- concentration of complete inhibition of ^125I-TGF-β1 binding [6]: 34 µM
- IC50 [7]: 1000 nM and 2000 nM
- concentration at which ^125I-TGF-β1-affinity labeling was almost completely abolished [8]: 2.3 µM
- percent inhibition of ^125I-TGF-β1-affinity labeling at 2.3 µM [9]: 30 to 40%
- percent inhibition of ^125I-TGF-β1-affinity labeling at 2.3 µM [10]: 30 to 40%
- percent inhibition of ^125I-TGF-β1-affinity labeling at 2.3 µM [11]: 30 to 40%
- IC50 [12]: 60 to 80 nM

B4: TGF-β2 (ligand)
chain: ALDAAYCFRNVQDNCCLRPLYIDFKRDLGWKWIHEPKGYNANFCAGACPYLWSSDTQHSRVLSLYNTINPEASASPCCVSQDLEPLTILYYIGKTPKIEQLSNMIVKSCKCS
modifications: ^125I-labelled (iodination with Na^125I)
- specific binding (0% inhibition) [13]: 4510 cpm/well

B7: peptide β1^10 (49-58) (peptide)
peptide: PYIWSLDTQY
- IC50 [6]: 40000 to 70000 nM
